Assay [1] concerns the target amyloid β peptide 1-42 (human) (human). Put plainly: cell-based or functional assay.
Assay [2] concerns the target amyloid β peptide 1-40 (human) (human). Put plainly: cell-based or functional assay.

The record followed here is US20080242590A1, “New Method 706” (ASTRAZENECA AB, priority 2007, published 2008).

Sequence of amyloid β peptide 1-40 (human) (human) (peptide, as listed by the source): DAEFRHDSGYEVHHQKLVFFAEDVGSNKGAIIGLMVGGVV
Sequence of amyloid β peptide 1-42 (human) (human) (peptide, as listed by the source): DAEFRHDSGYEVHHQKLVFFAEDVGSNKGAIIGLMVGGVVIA

B1: Fc-Neprilysin fusion protein (human IgG2 hinge and Fc domain fused N-terminally to the extracellular domain of human Neprilysin) (Fc fusion)
chain: ERKCCVECPPCPAPPVAGPSVFLFPPKPKDTLMISRTPEVTCVVVDVSHEDPEVQFNWYVDGVEVHNAKTKPREEQFNSTFRVVSVLTVVHQDWLNGKEYKCKVSNKGLPAPIEKTISKTKGQPREPQVYTLPPSREEMTKNQVSLTCLVKGFYPSDIAVEWESNGQPENNYKTTPPMLDSDGSFFLYSKLTVDKSRWQQGNVFSCSVMHEALHNHYTQKSLSLSPGKYDDGICKSSDCIKSAARLIQNMDATTEPCTDFFKYACGGWLKRNVIPETSSRYGNFDILRDELEVVLKDVLQEPKTEDIVAVQKAKALYRSCINESAIDSRGGEPLLKLLPDIYGWPVATENWEQKYGASWTAEKAIAQLNSKYGKKVLINLFVGTDDKNSVNHVIHIDQPRLGLPSRDYYECTGIYKEACTAYVDFMISVARLIRQEERLPIDENQLALEMNKVMELEKEIANATAKPEDRNDPMLLYNKMTLAQIQNNFSLEINGKPFSWLNFTNEIMSTVNISITNEEDVVVYAPEYLTKLKPILTKYSARDLQNLMSWRFIMDLVSSLSRTYKESRNAFRKALYGTTSETATWRRCANYVNGNMENAVGRLYVEAAFAGESKHVVEDLIAQIREVFIQTLDDLTWMDAETKKRAEEKALAIKERIGYPDDIVSNDNKLNNEYLELNYKEDEYFENIIQNLKFSQSKQLKKLREKVDKDEWISGAAVVNAFYSSGRNQIVFPAGILQPPFFSAQQSNSLNYGGIGMVIGHEITHGFDDNGRNFNKDGDLVDWWTQQSASNFKEQSQCMVYQYGNFSWDLAGGQHLNGINTLGENIADNGGLGQAYRAYQNYIKKNGEEKLLPGLDLNHKQLFFLNFAQVWCGTYRPEYAVNSIKTDVHSPGNFRIIGTLQNSAEFSEAFHCRKNSYMNPEKKCRVW
On to B1, for which, in assay [1], the % degradation of Aβ 1-42 in APPswe-tg mouse plasma at highest concentration (100 µg/ml), 1 h room temperature, ELISA was 34%; the % degradation of Aβ 1-42 in human plasma at highest concentration (100 µg/ml), 1 h room temperature, ELISA is 28%; the EC50 of degradation of Aβ 1-42 in APPswe-tg mouse plasma amounted to 1300 nM; the EC50 of degradation of Aβ 1-42 in human plasma came out at 250 nM. In assay [2], the % degradation of amyloid β 1-40 in APPswe-tg mouse plasma at highest concentration (100 µg/ml), 1 h room temperature, ELISA was 71%; the % degradation of amyloid β 1-40 in human plasma at highest concentration (100 µg/ml), 1 h room temperature, ELISA came out at 66%; the Amyloid β 1-40 peptide degradation (remaining peptide by Gyrolab immunoassay), batch 1, 2.4 µg/ml, 300 nM peptide, 2.5 h at 37 °C in buffer was determined as 50%; the Amyloid β 1-40 peptide degradation (remaining peptide by Gyrolab immunoassay), batch 2, 2.4 µg/ml, 300 nM peptide, 2.5 h at 37 °C in buffer is 42%. In assay [2], this molecule showed an EC50 of degradation of Aβ 1-40 in APPswe-tg mouse plasma of 470 nM and an EC50 of degradation of Aβ 1-40 in human plasma of 580 nM.
